Measured values: publication doi:10.1101/2020.06.12.148478 (bioRxiv, 2020)

T1: SpbR (Caulobacter crescentus, UniProt Q9A5X4 1-377)
T1 sequence (looked up): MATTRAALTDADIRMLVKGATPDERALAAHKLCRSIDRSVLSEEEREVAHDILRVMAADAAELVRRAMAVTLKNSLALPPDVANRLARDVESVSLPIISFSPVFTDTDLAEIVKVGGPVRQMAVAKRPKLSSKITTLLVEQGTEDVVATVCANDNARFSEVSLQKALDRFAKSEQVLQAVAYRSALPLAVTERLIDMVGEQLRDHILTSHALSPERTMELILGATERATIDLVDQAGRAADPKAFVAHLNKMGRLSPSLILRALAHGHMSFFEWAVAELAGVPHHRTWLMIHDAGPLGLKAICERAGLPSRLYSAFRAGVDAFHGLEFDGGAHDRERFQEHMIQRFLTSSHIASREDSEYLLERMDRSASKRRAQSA


Experiments:
[1] = target: TacA (Caulobacter crescentus); experiment: SEC-MALS
SpbR [2] = target: T1, SpbR; experiment: ITC
[3] = target: PopA (Caulobacter crescentus); experiment: SEC-MALS
MST = target: the molecule itself; experiment: MST
SpbR [4] = target: T1, SpbR; experiment: SEC-MALS
SEC-MALS = target: the molecule itself; experiment: SEC-MALS

stoichiometry N [1] [subunits]	Kd (SpbR [2]) [µM]	stoichiometry N (RcdA per PopA) [3]	stoichiometry N (RcdA per TacA chain (1 RcdA : 2 TacA)) [1]	stoichiometry N (SpbR [4]) [RcdA per SpbR]	Molecule	Kd (MST) [µM]	stoichiometry N (SEC-MALS) [subunits]
2	–	–	–	–	TacA (natural protein)	–	–
–	3.3	1	0.5	1	RcdA (natural protein, Caulobacter crescentus, UniProt A0A0H3CD07 1-169, looked up, Fluorescin-5-Maleimide on cysteine in the fluorescence polarisation and MST experiments only; unlabelled elsewhere) MTEVNAFADTPWRAGVIQDFARSELFDRTFEEGMQLVEETAAYLDGAGRHDSKVLSRNAALGYATESMRLTTRLMQVASWLLVQRAVREGEMPPEAACAEAYRLAEEAPADGPAVEELPFGLMNLLQRSERLYERVRHLDRRMYVESPNEEAPRPVQNQLDRLTAAFGG	2.9	2
